Reference: doi:10.1101/2025.09.14.676173

Key:
[1] = molecular target: S2P.BA5.VI-1147 A570C/N967C (I1) (SARS CoV-2 omicron BA.5); test: cross-linking
[2] = molecular target: S2P.BA5.VI-1147 D571C/N967C (D17) (SARS CoV-2 omicron BA.5); test: cross-linking

Substance | stoichiometry N [1] | stoichiometry N [2]
S2P.BA5.VI-1147 A570C/N967C (I1) (domain or fragment) | 3 | 
S2P.BA5.VI-1147 D571C/N967C (D17) (domain or fragment) |  | 3
